From patent US20080220446A1 (published 2008) come the findings set out here.

Ends that are not written are not given here.

This experiment has as its target T1, recombinant human β2-glycoprotein I (insect cells) (human, UniProt P02749 20-345).
T1 construct: also called recombinant β2GPI; rβ2GPI
T1 sequence (looked up): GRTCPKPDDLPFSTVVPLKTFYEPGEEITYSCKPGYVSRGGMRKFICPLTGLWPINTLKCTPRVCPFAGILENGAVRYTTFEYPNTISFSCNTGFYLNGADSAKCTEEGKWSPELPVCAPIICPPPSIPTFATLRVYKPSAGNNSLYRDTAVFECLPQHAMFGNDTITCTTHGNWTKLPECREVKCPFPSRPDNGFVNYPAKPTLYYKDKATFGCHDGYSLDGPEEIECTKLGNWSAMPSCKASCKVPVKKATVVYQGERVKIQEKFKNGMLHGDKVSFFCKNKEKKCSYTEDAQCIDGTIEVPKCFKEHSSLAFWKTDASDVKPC
Description: SPR (Biacore), tPA F immobilized on CM5 chip. As for the experimental part:
A standardized amine coupling procedure was used to couple proteins with F domains to a CM5 chip (Biacore AB, Uppsala, Sweden). First, the dextran surface of the chips was activated by a 35 μl injection with a 1:1 mixture of 0.1 M N-hydroxysuccinimide (NHS) and 0.4 M N-ethyl-N′-(dimethylaminopropyl)carbodiimide (EDC) at a flow rate of 5 μl min.⁻¹. Then, the proteins were covalently coupled to the activated dextran surface. Remaining activated groups in each of the four flow channels were blocked by injection of 35 μl of 1 M ethanolamine hydrochloride pH 8.5. EDC, NHS and ethanolamine hydrochloride were obtained from Biacore. […] The flow rate was 10 μl min.⁻¹, the injection time was 120″. The running buffer during immobilization was 10 mM HEPES pH 7.4, 140 mM NaCl. Buffers were filtrated on a 0.22 μm filter (white GSWP, 47 mm, Millipore) and degassed at room temperature. For subsequent binding experiments, the running buffer was 10 mM HEPES pH 7.4, 140 mM NaCl, 1.5 mM CaCl₂, 10 mM εACA, 0.005% Tween-20. […] After each injection of protein, the chip was regenerated with 0.1 M H₃PO₄ pH 1.0.
In general terms: Surface plasmon resonance follows binding to a sensor surface in real time, without labels.

B1: chemically synthesized tPA F domain (other, human)
chain: SYQVICRDEKTQMIYQQHQSWLRPVLRSNRVEYCWCNSGRAQCHSVPVKSK
modifications: ends and bridges not checked; also: C-terminal Lys acetylated or biotinylated, not given here which
notes: domain: F domain; Made by native chemical ligation; immobilized on the second Biacore chip
For the molecule B1, the binding result is “no binding (tested: 0-300 nM)”.
